Conditions: Streptomyces albogriseolus, Thermal, DSC, reversible: yes, whole UniProt chain shown

B1: Subtilisin inhibitor wild type, P01006 (protein)
chain: MRNTGAGPSPSVSRPPPSAAPLSGAALAAPGDAPSALYAPSALVLTVGKGVSATTAAPERAVTLTCAPGPSGTHPAAGSACADLAAVGGDLNALTRGEDVMCPMVYDPVLLTVDGVWQGKRVSYERVFSNECEMNAHGSSVFAF
For B1, the unfolding free energy (pH 3.2, 53.36 °C, glycine 25 mM) was 5.55 kcal/mol, the Tm (pH 3.2, glycine 25 mM) was 53.4 °C and the “unfolding enthalpy (calorimetric)” value (pH 3.2, glycine 25 mM) was 106 kcal/mol. For the same protein, the unfolding free energy (pH 7, 82.21 °C, Sodium phosphate 25 mM) was 6.03 kcal/mol, the Tm (pH 7, Sodium phosphate 25 mM) was 82.2 °C and the “unfolding enthalpy (calorimetric)” value (pH 7, Sodium phosphate 25 mM) was 190 kcal/mol. For the same protein, the unfolding free energy (pH 9.5, 80.7 °C, glycine 25 mM) was 6.04 kcal/mol, the Tm (pH 9.5, glycine 25 mM) was 80.7 °C and the “unfolding enthalpy (calorimetric)” value (pH 9.5, glycine 25 mM) was 186 kcal/mol.

Reference: FireProtDB (doi:10.1006/jmbi.1995.0323)
